For assay [1], the target named is poly(ADP-ribose) polymerase I (PARP-1), native, co-purified from HeLa cells (UniProt P09874). Nature of the assay: cell-based or functional assay.
Assay [2] deals with mutated e-mH2A1.1 nucleosome complex (HXTX motif at positions 213-216 converted to AAAA) (human) (UniProt O75367). Briefly: tagged nucleosome complexes isolated at 300 mM NaCl, silver stained SDS-PAGE, PARP-1 relative to histone H1.
Sequence of mutated e-mH2A1.1 nucleosome complex (HXTX motif at positions 213-216 converted to AAAA) (human) (O75367 whole entry, change not shown, one chain of several): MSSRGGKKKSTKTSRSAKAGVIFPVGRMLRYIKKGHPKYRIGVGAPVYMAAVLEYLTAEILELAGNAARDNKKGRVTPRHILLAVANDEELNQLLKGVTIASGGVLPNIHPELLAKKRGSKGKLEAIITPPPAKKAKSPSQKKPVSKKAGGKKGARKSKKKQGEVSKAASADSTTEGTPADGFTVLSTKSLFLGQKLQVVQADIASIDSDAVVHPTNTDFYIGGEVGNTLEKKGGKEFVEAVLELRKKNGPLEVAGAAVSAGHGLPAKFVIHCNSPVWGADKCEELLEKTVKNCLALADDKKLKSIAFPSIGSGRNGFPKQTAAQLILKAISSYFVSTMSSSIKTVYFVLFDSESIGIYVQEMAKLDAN

Sequence of poly(ADP-ribose) polymerase I (PARP-1), native, co-purified from HeLa cells (P09874 2-1014 limits assumed): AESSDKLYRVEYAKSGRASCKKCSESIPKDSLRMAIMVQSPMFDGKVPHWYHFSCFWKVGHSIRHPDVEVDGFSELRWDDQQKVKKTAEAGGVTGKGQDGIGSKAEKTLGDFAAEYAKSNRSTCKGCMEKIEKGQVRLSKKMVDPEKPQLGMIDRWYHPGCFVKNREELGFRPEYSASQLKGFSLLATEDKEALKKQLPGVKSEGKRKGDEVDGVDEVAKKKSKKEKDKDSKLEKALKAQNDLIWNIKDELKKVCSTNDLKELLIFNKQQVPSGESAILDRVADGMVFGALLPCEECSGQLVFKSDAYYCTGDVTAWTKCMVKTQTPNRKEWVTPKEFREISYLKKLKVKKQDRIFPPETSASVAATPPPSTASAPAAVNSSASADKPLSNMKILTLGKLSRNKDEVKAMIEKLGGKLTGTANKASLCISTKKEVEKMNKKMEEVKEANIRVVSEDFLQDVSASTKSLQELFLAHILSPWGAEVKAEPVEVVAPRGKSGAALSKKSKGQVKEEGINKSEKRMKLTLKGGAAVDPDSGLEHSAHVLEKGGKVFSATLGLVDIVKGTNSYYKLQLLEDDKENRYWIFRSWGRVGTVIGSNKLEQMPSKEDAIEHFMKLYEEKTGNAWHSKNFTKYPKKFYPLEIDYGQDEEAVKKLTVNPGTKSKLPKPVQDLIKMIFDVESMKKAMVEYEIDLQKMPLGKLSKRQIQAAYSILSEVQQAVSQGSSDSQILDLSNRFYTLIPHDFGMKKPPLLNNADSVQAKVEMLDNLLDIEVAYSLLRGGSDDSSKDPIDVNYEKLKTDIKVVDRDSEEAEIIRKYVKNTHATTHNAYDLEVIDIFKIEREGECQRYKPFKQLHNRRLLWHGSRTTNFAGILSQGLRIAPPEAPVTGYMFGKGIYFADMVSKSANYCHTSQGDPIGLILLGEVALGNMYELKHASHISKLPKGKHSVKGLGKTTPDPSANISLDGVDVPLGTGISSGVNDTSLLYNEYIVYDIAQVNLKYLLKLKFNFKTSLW

Consider “mutated e-mH2A1.1 nucleosome complex (HXTX motif at positions 213-216 converted to AAAA) (from UniProt O75367 1-369)”, for which the extent of PARP-1 labeling during the first minute, against PARP-1 associated with the wild type e-mH2A1.1 nucleosomes in assay [1] stood at 37 times.
The substance “poly(ADP-ribose) polymerase I (PARP-1), native, co-purified from HeLa cells (from UniProt P09874 2-1014)” returned an amount of PARP-1 associated, percent of that associated with the WT emH2A1.1 nucleosome complex in assay [2] of 8 to 10%.

(Values after patent US20100323974A1.)
